This experiment has as its target DyLight488-METTL14 (UniProt Q9HCE5). Briefly: MST.
Sequence of UniProt Q9HCE5 (Q9HCE5 whole entry): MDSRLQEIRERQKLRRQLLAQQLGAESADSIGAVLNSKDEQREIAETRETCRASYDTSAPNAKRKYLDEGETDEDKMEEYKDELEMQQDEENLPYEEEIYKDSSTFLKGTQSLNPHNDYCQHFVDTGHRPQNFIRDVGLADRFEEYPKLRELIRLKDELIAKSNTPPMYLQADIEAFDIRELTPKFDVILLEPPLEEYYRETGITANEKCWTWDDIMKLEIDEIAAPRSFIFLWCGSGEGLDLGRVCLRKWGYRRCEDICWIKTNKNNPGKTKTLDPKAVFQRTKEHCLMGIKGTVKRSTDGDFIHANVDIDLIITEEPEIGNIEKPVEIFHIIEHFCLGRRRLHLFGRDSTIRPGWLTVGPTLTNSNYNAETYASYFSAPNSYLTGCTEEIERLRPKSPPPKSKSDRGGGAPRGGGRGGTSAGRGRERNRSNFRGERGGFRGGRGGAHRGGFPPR

As for “full length H3K36me3 (from UniProt P68431 1-136) (natural protein)”, the dissociation constant (Kd) was 1.86 µM.

One may read the Kd as the concentration at which binding is half-saturated.

(Values after PMC6438714.)
